# Measurements published in patent US20200216495A1 (ADRX, published 2020).
# Square brackets hold non-standard residues; d marks the D form. Ends that are not written are not given here. dCit = NC(=O)NCCC[C@@H](N)C(=O)O
# Molecular target: Ac-VQIINK-NH2 (SEQ ID NO: 23) (N-terminal acetyl (Ac); C-terminal amide (NH2))
# Assay: cell-based or functional assay
row,Binder,VQIINK Inhibition IC50 [µm]
1,[dW][dW][dL][dR][dI][dH][dW][dW] [wwlrihww],1.83
2,[dW][dA][dL][dR][dI][dH][dW] [walrihw],3.12
3,[dF][dK][dI][dK][dI][dK][dW] (not fully specified; printed as fkikikw) [fkikikw],2.35
4,[dW][dT][dL][dR][dI][dH][dW] [wtlrihw],2.82
5,[dL][dK][dI][dR][dI][dH][dY][dH] [lkirihyh],1.99
6,[dW][dR][dL][dK][dV][dR][dW] [wrlkvrw],2.45
7,[dW][dH][dV][dK][dF][dE][dL][dF] [whvkfelf],2.12
8,[dL][dK][dI][dR][dI][dH][dY][dR] [lkirihyr],3.02
9,[dW][dR][dL][dE][dI][dH][dW] [wrleihw],2.2
10,[dF][dR][dL][dR][dI][dH][dW][dF] [frlrihwf],1.81
11,[dW][dR][dL][dR][dI][dA][dW] [wrlriaw],2.86
12,[dW][dR][dL][dQ][dV][dR][dW] [wrlqvrw],2.12
13,[dL][dR][dI][dR][dI][dR][dF][dH] [lririrfh],1.84
14,[dL][dK][dL][dH][dL][dH][dF][dH] [lklhlhfh],2.87
15,[dW][dR][dL][dR][dI][dT][dW] [wrlritw],2.89
16,[dW][dR][dL][dK][dV][dR][dW][dW] [wrlkvrww],1.97
17,[dW][dQ][dL][dQ][dV][dR][dW] [wqlqvrw],2.74
18,[dW][dK][dV][dQ][dV][dR][dW] [wkvqvrw],2.21
19,[dH][dR][dL][dK][dV][dR][dW][dH] [hrlkvrwh],1.97
20,[dF][dH][dI][dR][dL][dE][dW][dH] [fhirlewh],2.01
21,[dL][dA][dI][dR][dI][dH][dY][dH] [lairihyh],1.98
22,[dW][dK][dL][dW][dL][dR][dW] (not fully specified; printed as wklwlrw) [wklwlrw],1.95
23,[dW][dR][dL][dT][dI][dH][dW] [wrltihw],3.16
24,[dW][dR][dL][dR][dI][dM][dW] [wrlrimw],2.61
25,[dF][dR][dL][dK][dL][dR][dF][dH] [frlklrfh],1.8
26,[dF][dK][dL][dK][dI][dK][dW] [fklkikw],2.66
27,[dL][dK][dI][dR][dI][dH][dL][dH] [lkirihlh],1.81
28,[dF][dK][dL][dK][dL][dR][dW][dF] [fklklrwf],2.2

row,Binder,VQIINK Inhibition IC50 [µm]
1,[dL][dK][dI][dR][dI][dW][dY][dH] [lkiriwyh],1.89
2,[dW][dR][dF][dK][dF][dR][dW] [wrfkfrw],1.95
3,[dF][dK][dL][dW][dL][dR][dW][dF] [fklwlrwf],2.52
4,[dL][dK][dI][dH][dI][dR][dH][dW] [lkihirhw],2.38
5,[dL][dR][dI][dK][dI][dR][dF][dH] [lrikirfh],2.69
6,[dF][dR][dI][dR][dI][dH][dH][dF] [fririhhf],2.02
7,[dW][dW][dL][dR][dI][dH][dW] [wwlrihw],2.11
8,[dW][dR][dL][dR][dI][dE][dW] [wrlriew],1.98
9,[dL][dE][dL][dK][dI][dK][dF][dW] [lelkikfw],2.78
10,[dF][dR][dI][dR][dL][dR][dW] [frirlrw],2.58
11,[dF][dR][dL][dR][dI][dW][dW][dF] [frlriwwf],2.29
12,[dL][dK][dI][dQ][dI][dH][dY] [lkiqihy],2.82
13,[dW][dR][dL][dD][dV][dR][dW] [wrldvrw],2.42
14,[dW][dR][dL][dK][dV][dR][dW][dH] [wrlkvrwh],1.92
15,[dW][dR][dL][dK][dV][dR][dW][dF] [wrlkvrwf],2.53
16,[dW][dR][dL][dK][dV][dQ][dW] [wrlkvqw],2.15
17,[dL][dK][dI][dK][dI][dH][dY] [lkikihy],1.96
18,[dW][dR][dL][dR][dI][dH][dW][dW] [wrlrihww],1.88
19,[dW][dR][dL][dR][dI][dH][dW] [wrlrihw],2.23
20,[dL][dR][dI][dE][dI][dE][dW][dH] [lrieiewh],2.1
21,[dL][dK][dI][dCit][dI][dH][dY] [lkizihy],2.13
22,[dF][dR][dI][dK][dL][dR][dW] [friklrw],2.49
23,[dW][dR][dL][dK][dF][dR][dW] [wrlkfrw],2.23
24,[dL][dK][dI][dA][dI][dH][dY][dH] [lkiaihyh],2.26
25,[dW][dQ][dL][dK][dV][dQ][dW] [wqlkvqw],2.27
26,[dW][dW][dL][dK][dL][dR][dW] [wwlklrw],1.99
27,[dW][dK][dV][dW][dV][dR]G[dW] (not fully specified (residue 7); printed as wkvwvrgw) [wkvwvrgw],2.17
